Values belong to the binder of their own block, whether it stands above or below them.
Columns and labels:
human 5T4 on cells [1] = target: T1, human 5T4 on cells (human, UniProt Q13641 32-420); test: flow cytometry, CHO/5T4 cells, PE goat anti-human Fc
T1 construct: also called TPBG; hu5T4
T1 sequence: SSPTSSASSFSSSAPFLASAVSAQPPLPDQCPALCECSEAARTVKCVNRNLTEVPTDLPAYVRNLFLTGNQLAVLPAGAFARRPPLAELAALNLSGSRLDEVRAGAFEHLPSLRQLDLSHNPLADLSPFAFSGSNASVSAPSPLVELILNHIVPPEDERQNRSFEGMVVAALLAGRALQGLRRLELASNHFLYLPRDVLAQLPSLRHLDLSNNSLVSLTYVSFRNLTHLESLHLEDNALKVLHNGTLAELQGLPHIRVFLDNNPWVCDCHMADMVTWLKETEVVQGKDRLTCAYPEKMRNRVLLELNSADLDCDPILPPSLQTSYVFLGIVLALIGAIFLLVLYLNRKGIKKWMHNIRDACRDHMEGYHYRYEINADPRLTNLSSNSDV
Description: (§1) A 3-fold titration of ALG.APV-210 construct (ranging from 100 nM to 0.14 nM) was incubated with the human 5T4-expressing cell lines for 40 minutes in FACS buffer at 4° C., washed 3 times, and detected with PE-labeled, goat-anti-human Fc secondary antibody (Jackson ImmunoResearch). Binding of ALG.APV-210 was detected by flow cytometry. All samples were run in duplicates. Nonlinear regression analysis to determine EC₅₀ values was performed in GraphPad Prism 6® graphing and statistics software.

human 5T4 on cells [2] = target: T1, human 5T4 on cells; test: flow cytometry, MDA.MB-231 cells, PE goat anti-human Fc
Description: as §1

human 5T4 on cells [3] = target: T1, human 5T4 on cells; test: flow cytometry, JEG cells, streptavidin-PE, normalized MFI of 2 pooled experiments
Description: (§2) Prior to the FACS staining, all cell lines were characterized for their 5T4 expression levels using a receptor density kit (Quantum Simply Cellular, anti-human IgG, Bangs Laboratories, Inc). Adherent cell lines were cultured according to their supplier's instructions and were harvested from their cell culture flasks using Trypsin/EDTA, counted in R10 medium in a Burker chamber, and diluted in FACS buffer (PBS+0.5% BSA, 0.05% NaN₃) to a concentration of 4×10⁶ cells/mL. 50 μL (0.20×10⁶) of cell solution was added to a 96-well FACS staining plate (Falcon #351190). Cells were incubated for 20 min in 4° C. with 50 μL of the biotinylated ALG.APV-210 (2× final concentration). The antibodies were added in a serial dilution starting at 20 μg/mL titrating down in a 12 step ½ dilution down to 0.010 μg/mL. Following 2× washing with FACS buffer, cells were incubated for 30 min in 4° C. with 100 μL of a secondary antibody (streptavidin-PE, BD #554061, diluted 1/500). […] Cells were analysed for ALG.APV-210 binding using flow cytometry (FACSVerse) by gating on single cells. MFI values (secondary antibody only subtracted) from 1 out of 2 independent experiments, as well as normalized data and EC₅₀-values of pooled data from 2 experiments were determined and plotted using GraphPad Prism 7, non-linear regression log (agonist) vs. normalized response—variable slope.

human 5T4 on cells [4] = target: T1, human 5T4 on cells; test: flow cytometry, HT29 cells (endogenous human 5T4), biotinylated ALG.APV-210 + streptavidin-PE, 1 of 2 experiments
Description: as §2, with “μg/mL.” for “μg/mL. Following 2× washing with FACS buffer, cells were incubated for 30 min in 4° C. with 100 μL of a secondary antibody (streptavidin-PE, BD #554061, diluted 1/500).”
The binding (EC₅₀) of the biotinylated ALG.APV-210 to 5T4 when expressed on cells, either at endogenous levels on human tumor cells or on cells transfected to express 5T4 was assessed. […]

EC50 (human 5T4 on cells [1]): 10 nM
EC50 (human 5T4 on cells [2]): 21 nM
B1: ALG.APV-210 (bispecific antibody)
chain: EVQLLESGGGLVQPGGSLRLSCAASGFTFSHGSMYWVRQAPGKGLEWVSSISSGSGSTYYADSVKGRFTISHDNSKNTLYLQMNSLRAEDTAVYYCARSSYYGSYYSIDYWGQGTLVTVSSGGGGSGGGGSGGGGSGGGGSDIQMTQSPSSLSASVGDRVTITCRASQSISSYLNWYQQKPGKAPKLLIYAASSLQSGVPSRFSGSGSGTDFTLTISSLQPEDFATYYCQQYYDNLPTFGQGTKLEIKEPKSSDKTHTCPPCPAPEAAGAPSVFLFPPKPKDTLMISRTPEVTCVVVDVSHEDPEVKFNWYVDGVEVHNAKTKPREEQYNSTYRVVSVLTVLHQDWLNGKEYKCAVSNKALPAPIEKTISKAKGQPREPQVYTLPPSRDELTKNQVSLTCLVKGFYPSDIAVEWESNGQPENNYKTTPPVLDSDGSFFLYSKLTVDKSRWQQGNVFSCSVMHEALHNHYTQKSLSLSPGSGGGGSGGGGSGGGGSPSEVQLLESGGGLVQPGGSLRLSCAASGFTFSSYAMSWVRQAPGKCLEWVSAISGSGGSTYYADSVKGRFTISRDNSKNTLYLQMNSLRAEDTAVYYCARYYGGYYSAWMDYWGQGTLVTVSSGGGGSGGGGSGGGGSGGGGSDIQMTQSPSSLSASVGDRVTITCRASQSISSFLNWYQQKPGKAPKLLIYAASSLQSGVPSRFSGSGSGTDFTLTISSLQPEDSATYYCQQTYGYLHTFGCGTKLEIKR
notes: Optimized ADAPTIR scFv-Fc-scFv homodimer with stabilizing disulfide in the 1210 scFv; also called 5T4-CD137 bispecific antibody

B2: biotinylated ALG.APV-210 (bispecific antibody)
chain: B1 chain
notes: also called ALG.APV-210 (biotinylated for FACS detection)
EC50 (human 5T4 on cells [3]): 8 nM
EC50 (read off the curve) (human 5T4 on cells [4]): ~10 nM
